In paper PMC4140749, “Identification of a Novel Hypocholesterolemic Protein, Major Royal Jelly Protein 1, Derived from Royal Jelly” (PLoS ONE, 2014):

Biological target: the molecule itself
Assay: SEC; 10-kDa cut-off royal jelly applied to HiLoad 26/60 Superdex 200 p.g.; 150 mM NaCl, 20 mM phosphate buffer pH 7.5; molecular weight calibrated with standard proteins; peak resolved by 15% SDS-PAGE

B1: major royal jelly protein 1 (natural protein, Apis mellifera, UniProt O18330 20-432, looked up)
chain: NILRGESLNKSLPILHEWKFFDYDFGSDERRQDAILSGEYDYKNNYPSDIDQWHDKIFVTMLRYNGVPSSLNVISKKVGDGGPLLQPYPDWSFAKYDDCSGIVSASKLAIDKCDRLWVLDSGLVNNTQPMCSPKLLTFDLTTSQLLKQVEIPHDVAVNATTGKGRLSSLAVQSLDCNTNSDTMVYIADEKGEGLIVYHNSDDSFHRLTSNTFDYDPKFTKMTIDGESYTAQDGISGMALSPMTNNLYYSPVASTSLYYVNTEQFRTSDYQQNDIHYEGVQNILDTQSSAKVVSKSGVLFFGLVGDSALGCWNEHRTLERHNIRTVAQSDETLQMIASMKIKEALPHVPIFDRYINREYILVLSNKMQKMVNNDFNFDDVNFRIMNANVNELILNTRCENPDNDRTPFKISIHL
notes: Major royal jelly protein 1 (MRJP1), Apis mellifera; 55 kDa on SDS-PAGE; Native protein isolated from royal jelly and identified by MALDI-TOF/MS; The introduction calls MRJPs glycoproteins; also called MRJP1; major RJ protein 1; source: purified from royal jelly (10-kDa cut-off RJ, size-exclusion chromatography on Superdex 200)
stoichiometry N: ~5
